From patent publication US20200038493

Tests used:
[1] = target: UbcH5b (E2 ubiquitin-conjugating enzyme), P62837
[2] = target: GST-tagged PKN1, Q16512
Chain of GST-tagged PKN1, Q16512 (Q16512 whole entry, looked up): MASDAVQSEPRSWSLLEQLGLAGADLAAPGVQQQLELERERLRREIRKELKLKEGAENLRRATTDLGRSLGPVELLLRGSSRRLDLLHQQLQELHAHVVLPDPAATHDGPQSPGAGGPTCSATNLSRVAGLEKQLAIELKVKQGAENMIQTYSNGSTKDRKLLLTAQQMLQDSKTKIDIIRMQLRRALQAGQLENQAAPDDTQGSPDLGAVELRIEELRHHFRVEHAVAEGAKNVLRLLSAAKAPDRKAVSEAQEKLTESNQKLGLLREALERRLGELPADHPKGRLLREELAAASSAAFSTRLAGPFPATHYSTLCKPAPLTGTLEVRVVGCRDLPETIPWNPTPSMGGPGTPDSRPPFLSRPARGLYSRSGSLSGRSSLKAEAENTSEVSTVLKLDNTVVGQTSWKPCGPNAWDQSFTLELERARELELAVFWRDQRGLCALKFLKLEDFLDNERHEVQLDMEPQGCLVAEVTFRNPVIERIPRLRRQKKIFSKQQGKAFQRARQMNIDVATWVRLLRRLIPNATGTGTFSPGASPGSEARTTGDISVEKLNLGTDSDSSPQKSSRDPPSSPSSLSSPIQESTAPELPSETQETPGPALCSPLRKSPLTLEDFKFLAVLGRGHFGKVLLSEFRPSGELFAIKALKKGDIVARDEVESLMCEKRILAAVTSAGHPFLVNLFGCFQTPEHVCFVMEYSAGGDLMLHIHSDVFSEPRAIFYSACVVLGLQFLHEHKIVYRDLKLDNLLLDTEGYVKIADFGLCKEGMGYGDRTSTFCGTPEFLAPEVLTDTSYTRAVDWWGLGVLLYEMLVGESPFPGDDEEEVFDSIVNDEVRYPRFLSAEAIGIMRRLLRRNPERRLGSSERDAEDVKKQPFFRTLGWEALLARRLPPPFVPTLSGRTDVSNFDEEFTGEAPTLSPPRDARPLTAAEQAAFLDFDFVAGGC

Chain of UbcH5b (E2 ubiquitin-conjugating enzyme), P62837 (P62837 whole entry, looked up): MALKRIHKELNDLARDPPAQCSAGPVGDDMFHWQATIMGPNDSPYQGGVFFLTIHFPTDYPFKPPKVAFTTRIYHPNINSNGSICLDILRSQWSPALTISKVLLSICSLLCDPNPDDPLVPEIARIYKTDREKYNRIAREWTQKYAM

Protein | in vitro ubiquitination assay, anti-HA western blot [1] | other results
recombinant IpaH1.4 from Shigella flexneri (protein) MIKSTNIQAIGSGIMHQINNVYSLTPLSLPMELTPSCNEFYLKTWSEWEKNGTPGEQRNIAFNRLKICLQNQEAELNLSELDLKTLPDLPPQITTLEIRKNLLTHLPDLPPMLKVIHAQFNQLESLPALPETLEELNAGDNKIKELPFLPENLTHLRVHNNRLHILPLLPPELKLLVVSGNRLDSIPPFPDKLEGLALANNFIEQLPELPFSMNRAVLMNNNLTTLPESVLRLAQNAFVNVAGNPLSGHTMRTLQQITTGPDYSGPRIFFSMGNSATISAPEHSLADAVTAWFPENKQSDVSQIWHAFEHEEHANTFSAFLDRLSDTVSARNTSGFREQVAAWLEKLSASAELRQQSFAVAADATESCEDRVALTWNNLRKTLLVHQASEGLFDNDTGALLSLGREMFRLEILEDIARDKVRTLHFVDEIEVYLAFQTMLAEKLQLSTAVKEMRFYGVSGVTANDLRTAEAMVRSREENEFTDWFSLWGPWHAVLKRTEADRWAQAEEQKYEMLENEYSQRVADRLKASGLSGDADAEREAGAQVMRETEQQIYRQLTDEVLALRLSENGSNHIAHHHHHH | have the ability to remove ubiquitin from ubiquitinated UbcH5b in order to form poly-ubiquitin chains of the HA-tagged ubiquitin | –
recombinant IpaH2.5 from Shigella flexneri (protein) MIKSTNIQVIGSGIMHQINNIHSLTLFSLPVSLSPSCNEYYLKVWSEWEKNGTPGEQRNIAFNRLKICLQNQEAELNLSELDLKTLPDLPPQITTLEIRKNLLTHLPDLPPMLKVIHAQFNQLESLPALPETLEELNAGDNKIKELPFLPENLTHLRVHNNRLHILPLLPPELKLLVVSGNRLDSIPPFPDKLEGLALANNFIEQLPELPFSMNRAVLMNNNLTTLPESVLRLAQNAFVNVAGNPLSGHTMRTLQQITTGPDYSGPRIFFSMGNSATISAPEHSLADAVTAWFPENKQSDVSQIWHAFEHEEHANTFSAFLDRLSDTVSARNTSGFREQVAAWLEKLSASAELRQQSFAVAADATESCEDRVALTWNNLRKTLLVHQASEGLFDNDTGALLSLGREMFRLEILEDIARDKVRTLHFVDEIEVYLAFQTMLAEKLQLSTAVKEMRFYGVSGVTANDLRTAEAMVRSREENEFTDWFSLWGPWHAVLKRTEADRWAQAEEQKYEMLENEYSQRVADRLKASGLSGDADAEREAGAQVMRETEQQIYRQLTDEVLAHHHHHH | have the ability to remove ubiquitin from ubiquitinated UbcH5b in order to form poly-ubiquitin chains of the HA-tagged ubiquitin | –
recombinant IpaH9.8 from Shigella flexneri (protein) MLPINNNFSLPQNSFYNTISGTYADYFSAWDKWEKQALPGEERDEAVSRLKECLINNSDELRLDRLNLSSLPDNLPAQITLLNVSYNQLTNLPELPVTLKKLYSASNKLSELPVLPPALESLQVQHNELENLPALPDSLLTMNISYNEIVSLPSLPQALKNLRATRNFLTELPAFSEGNNPVVREYFFDRNQISHIPESILNLRNECSIHISDNPLSSHALQALQRLTSSPDYHGPRIYFSMSDGQQNTLHRPLADAVTAWFPENKQSDVSQIWHAFEHEEHANTFSAFLDRLSDTVSARNTSGFREQVAAWLEKLSASAELRQQSFAVAADATESCEDRVALTWNNLRKTLLVHQASEGLFDNDTGALLSLGREMFRLEILEDIARDKVRTLHFVDEIEVYLAFQTMLAEKLQLSTAVKEMRFYGVSGVTANDLRTAEAMVRSREENEFTDWFSLWGPWHAVLKRTEADRWAQAEEQKYEMLENEYPQRVADRLKASGLSGDADAEREAGAQVMRETEQQIYRQLTDEVLALRLFENGSQLHHSHHHHHH | have the ability to remove ubiquitin from ubiquitinated UbcH5b in order to form poly-ubiquitin chains of the HA-tagged ubiquitin | –
recombinant SlrP from Salmonella enterica serovar Typhimurium (protein) MFNITNIQSTARHQSISNEASTEVPLKEEIWNKISAFFSSEHQVEAQNCIAYLCHPPETASPEEIKSKFECLRMLAFPAYADNIQYSRGGADQYCILSENSQEILSIVFNTEGYTVEGGGKSVTYTRVTESEQASSASGSKDAVNYELIWSEWVKEAPAKEAANREEAVQRMRDCLKNNKTELRLKILGLTTIPAYIPEQITTLILDNNELKSLPENLQGNIKTLYANSNQLTSIPATLPDTIQEMELSINRITELPERLPSALQSLDLFHNKISCLPENLPEELRYLSVYDNSIRTLPAHLPSEITHLNVQSNSLTALPETLPPGLKTLEAGENALTSLPASLPPELQVLDVSKNQITVLPETLPPTITTLDVSRNALTNLPENLPAALQIMQASRNNLVRLPESLPHFRGEGPQPTRIIVEYNPFSERTIQNMQRLMSSVDYQGPRVLFAMGDFSIVRVTRPLHQAVQGWLTSLEEEDVNQWRAFEAEANAAAFSGFLDYLGDTQNTRHPDFKEQVSAWLMRLAEDSALRETVFIIAMNATISCEDRVTLAYHQMQEATLVHDAERGAFDSHLAELIMAGREIFRLEQIESLAREKVKRLFFIDEVEVFLGFQNQLRESLSLTTMTRDMRFYNVSGITESDLDEAEIRIKMAENRDFHKWFALWGPWHKVLERIAPEEWREMMAKRDECIETDEYQSRVNAELEDLRIADDSDAERTTEVQMDAERAIGIKIMEEINQTLFTEIMENILLKKEVSSLMSAYWRHHHHHH | have the ability to remove ubiquitin from ubiquitinated UbcH5b in order to form poly-ubiquitin chains of the HA-tagged ubiquitin | –
recombinant IpaH7.8 from Shigella flexneri (protein) MFSVNNTHSSVSCSPSINSNSTSNEHYLRILTEWEKNSSPGEERGIAFNRLSQCFQNQEAVLNLSDLNLTSLPELPKHISALIVENNKLTSLPKLPAFLKELNADNNRLSVIPELPESLTTLSVRSNQLENLPVLPNHLTSLFVENNRLYNLPALPEKLKFLHVYYNRLTTLPDLPDKLEILCAQRNNLVTFPQFSDRNNIRQKEYYFHFNQITTLPESFSQLDSSYRINISGNPLSTRVLQSLQRLTSSPDYHGPQIYFSMSDGQQNTLHRPLADAVTAWFPENKQSDVSQIWHAFEHEEHANTFSAFLDRLSDTVSARNTSGFREQVAAWLEKLSASAELRQQSFAVAADATESCEDRVALTWNNLRKTLLVHQASEGLFDNDTGALLSLGREMFRLEILEDIARDKVRTLHFVDEIEVYLAFQTMLAEKLQLSTAVKEMRFYGVSGVTANDLRTAEAMVRSREENEFTDWFSLWGPWHAVLKRTEADRWAQAEEQKYEMLENEYSQRVADRLKASGLSGDADAEREAGAQVMRETEQQIYRQLTDEVLALRLSENGSRLHHSHHHHHH | have the ability to remove ubiquitin from ubiquitinated UbcH5b in order to form poly-ubiquitin chains of the HA-tagged ubiquitin | –
recombinant SspH1 of Salmonella enterica serovar Typhimurium with C-terminal 6x His-tag (protein) MFNIRNTQPSVSMQAIAGAAAPEASPEEIVWEKIQVFFPQENYEEAQQCLAELCHPARGMLPDHISSQFARLKALTFPAWEENIQCNRDGINQFCILDAGSKEILSITLDDAGNYTVNCQGYSEAHDFIMDTEPGEECTEFAEGASGTSLRPATTVSQKAAEYDAVWSKWERDAPAGESPGRAAVVQEMRDCLNNGNPVLNVGASGLTTLPDRLPPHITTLVIPDNNLTSLPELPEGLRELEVSGNLQLTSLPSLPQGLQKLWAYNNWLASLPTLPPGLGDLAVSNNQLTSLPEMPPALRELRVSGNNLTSLPALPSGLQKLWAYNNRLTSLPEMSPGLQELDVSHNQLTRLPQSLTGLSSAARVYLDGNPLSVRTLQALRDIIGHSGIRIHFDMAGPSVPREARALHLAVADWLTSAREGEAAQADRWQAFGLEDNAAAFSLVLDRLRETENFKKDAGFKAQISSWLTQLAEDAALRAKTFAMATEATSTCEDRVTHALHQMNNVQLVHNAEKGEYDNNLQGLVSTGREMFRLATLEQIAREKAGTLALVDDVEVYLAFQNKLKESLELTSVTSEMRFFDVSGVTVSDLQAAELQVKTAENSGFSKWILQWGPLHSVLERKVPERFNALREKQISDYEDTYRKLYDEVLKSSGLVDDTDAERTIGVSAMDSAKKEFLDGLRALVDEVLGSYLTARWRLNHHHHHH | – | in vitro ubiquitination assay, anti-PKN1 immunoblot [2]: When the reaction was performed in the presence of SspH1 and PKN1 in vitro, anti-PKN1 antibodies detected an additional species migrating at a size >148 kDa; in vitro ubiquitination assay, immunoblots with anti-HA, anti-PKN1 and anti-His antibodies [2]: recombinant SspH1 ubiquitinates PKN1 in vitro; in vitro ubiquitination assay, western blot [1]: recombinant SspH1 has the ability to remove ubiquitin from ubiquitinated UbcH5B, to autoubiquitinate, and to polyubiquitinate Ha-tagged ubiquitin
recombinant IpaH4.5 from Shigella flexneri (protein) MKPINNHSFFRSLCGLSCISRLSVEEQCTRDYHRIWDDWAREGTTTENRIQAVRLLKICLDTREPVLNLSLLKLRSLPPLPLHIRELNISNNELISLPENSPLLTELHVNGNNLNILPTLPSQLIKLNISFNRNLSCLPSLPPYLQSLSARFNSLETLPELPSTLTILRIEGNRLTVLPELPHRLQELFVSGNRLQELPEFPQSLKYLKVGENQLRRLSRLPQELLALDVSNNLLTSLPENIITLPICTNVNISGNPLSTHVLQSLQRLTSSPDYHGPQIYFSMSDGQQNTLHRPLADAVTAWFPENKQSDVSQIWHAFEHEEHANTFSAFLDRLSDTVSARNTSGFREQVAAWLEKLSASAELRQQSFAVAADATESCEDRVALTWNNLRKTLLVHQASEGLFDNDTGALLSLGREMFRLEILEDIARDKVRTLHFVDEIEVYLAFQTMLAEKLQLSTAVKEMRFYGVSGVTANDLRTAEAMVRSREENEFTDWFSLWGPWHAVLKRTEADRWAQAEEQKYEMLENEYSQRVADRLKASGLSGDADAEREAGAQVMRETEQQIYRQLTDEVLAHHHHHH | have the ability to remove ubiquitin from ubiquitinated UbcH5b in order to form poly-ubiquitin chains of the HA-tagged ubiquitin | –
